This test has as its target human CD3 epsilon (CD3ε) (human, UniProt P07766 23-207). As to the kind of experiment: binding kinetics.

This is an account of results in US20230374130A1 (published 2023).

Sequence of human CD3 epsilon (CD3ε) (P07766 23-207): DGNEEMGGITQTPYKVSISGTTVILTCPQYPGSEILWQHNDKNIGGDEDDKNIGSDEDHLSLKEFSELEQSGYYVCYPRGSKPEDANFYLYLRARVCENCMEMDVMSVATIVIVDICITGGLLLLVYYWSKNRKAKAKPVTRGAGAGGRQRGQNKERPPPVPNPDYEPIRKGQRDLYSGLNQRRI

B1: 160C9_T4h (bispecific antibody)
light: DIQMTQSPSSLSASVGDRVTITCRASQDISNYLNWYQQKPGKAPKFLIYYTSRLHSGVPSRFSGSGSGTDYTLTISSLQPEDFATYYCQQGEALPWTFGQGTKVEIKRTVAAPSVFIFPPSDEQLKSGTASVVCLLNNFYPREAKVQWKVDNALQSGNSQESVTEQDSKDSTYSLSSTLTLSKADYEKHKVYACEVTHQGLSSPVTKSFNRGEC
heavy 1: QVQLVQSGAEVKKPGASVKVSCKASGYKFTSYWIEWVRQAPGQGLEWIGEILPGSDTTNYNEKFKDRVTFTSDTSTSTVYMELSSLRSEDTAVYYCARDRGNYRAWFGYWGQGTLVTVSSASTKGPSVFPLAPSSKSTSGGTAALGCLVKDYFPEPVTVSWNSGALTSGVHTFPAVLQSSGLYSLSSVVTVPSSSLGTQTYICNVNHKPSNTKVDKKVEPKSCDKTHTCPPCPAPEAAGAPSVFLFPPKPKDTLMISRTPEVTCVVVDVSHEDPEVKFNWYVDGVEVHNAKTKPREEQYNSTYRVVSVLTVLHQDWLNGKEYKCKVSNKALPAPIEKTISKAKGQPREPQVYTLPPSRDELTKNQVSLSCAVKGFYPSDIAVEWESNGQPENNYKTTPPVLDSDGSFFLVSKLTVDKSRWQQGNVFSCSVMHEALHNHYTQKSLSLSPG
heavy 2: not shown
In general, Kd refers to a measure of binding affinity in units of concentration. Lower therefore signals a tighter complex. Regarding B1, binding was characterised by a dissociation constant (Kd) of 12 nM.
